Measured values published in patent publication US20240336672A1.
Positions count from the first letter of the chain named.

B1: ADG-2 (antibody, V domains shown)
VH: EVQLVESGGGLVKPGGSLRLSCAASGFTFSSYYMNWVRQAPGKGLEWVSSISEDGYSTYYPDSLKGRFTISRDSAKNSLYLQMNSLRADDTAVYYCARDFSGHTAWAGTGFEYWGQGTLVTVSS
VL: QSVLTQPPSVSGAPGQRITISCTGSSSNIGAGYDVHWYQQLPGTAPKLLIYGSSSRNSGVPDRFSGSKSGTSASLAITGLQAEDEADYYCQSYDSSLSVLYTFGTGTKVTVL
B2: Cv2.3194 (recombinant human IgG1) (antibody)
heavy: EVQLVESGGGLIQPGGSLRLSCAASGITVTSNYMSWVRQAPGKGLEWVSVIYPGGSTFYADSVKGRFTISRDNSKNTLYLQMNSLRAEDTAVYYCARDLVVYGMDVWGQGTTVTVSSASTKGPSVFPLAPSSKSTSGGTAALGCLVKDYFPEPVTVSWNSGALTSGVHTFPAVLQSSGLYSLSSVVTVPSSSLGTQTYICNVNHKPSNTKVDKKVEPKSCDKTHTCPPCPAPELLGGPSVFLFPPKPKDTLMISRTPEVTCVVVDVSHEDPEVKFNWYVDGVEVHNAKTKPREEQYNSTYRVVSVLTVLHQDWLNGKEYKCKVSNKALPAPIEKTISKAKQPREPQVYTLPPSRDELTKNQVSLTCLVKGFYPSDIAVEWESNGQPENNYKTTPPVLDSDGSFFLYSKLTVDKSRWQQGNVFSCSVMHEALHNHYTQKSLSLSPGK
light: EIVLTQSPGTLSLSPGERATLSCRASQSVSSSYLAWYQQKPGQAPRLLIYGASSRATGIPGRFSGSGSGTDFTLTISRLEPEDFAIYYCQQGVTFGGGTKVEIKRTVAAPSVFIFPPSDEQLKSGTASVVCLLNNFYPREAKVQWKVDNALQSGNSQESVTEQDSKDSTYSLSSTLTLSKADYEKHKVYACEVTHQGLSSPVTKSFNRGEC
B3: Cv2.3235 (recombinant human IgG1) (antibody)
heavy: B2 heavy with I27F, T30S, S31R, P53S, L99G, V100D, V101Y
light: DIQMTQSPSFLSASVGDRVTITCRASQGISSFLAWYQQKPGKAPKLLIYGASTLQSGVTSRFSGSGSGTEFTLTISSLQPEDFATYYCQRLDSYPPITFGQGTRLEIKRTVAAPSVFIFPPSDEQLKSGTASVVCLLNNFYPREAKVQWKVDNALQSGNSQESVTEQDSKDSTYSLSSTLTLSKADYEKHKVYACEVTHQGLSSPVTKSFNRGEC
B4: Cv2.5213 (recombinant human IgG1) (antibody)
heavy: B2 heavy with I27F, T30S, V50L, P53S, F58Y, V100N, V101Y, T111A
light: not shown
B5: Cv2.1353 (recombinant human IgG1) (antibody)
heavy: EVQLVESGGGLVQPGGSLRLSCAASGVTVSSNYMNWVRQAPGKGLEWVSVIYSGGSTFYADSVKGRFIISRDNSKNTLYLQMNSLKTEDTAVYYCARDLGPMGFDIWGQGTMVTVSSASTKGPSVFPLAPSSKSTSGGTAALGCLVKDYFPEPVTVSWNSGALTSGVHTFPAVLQSSGLYSLSSVVTVPSSSLGTQTYICNVNHKPSNTKVDKKVEPKSCDKTHTCPPCPAPELLGGPSVFLFPPKPKDTLMISRTPEVTCVVVDVSHEDPEVKFNWYVDGVEVHNAKTKPREEQYNSTYRVVSVLTVLHQDWLNGKEYKCKVSNKALPAPIEKTISKAKQPREPQVYTLPPSRDELTKNQVSLTCLVKGFYPSDIAVEWESNGQPENNYKTTPPVLDSDGSFFLYSKLTVDKSRWQQGNVFSCSVMHEALHNHYTQKSLSLSPGK
light: DIQMTQSPSFLSASVGDRVTITCRASQGISSYLAWYQQKPGKAPKLLIYAASTLQSGVPSRFSGSGSGTEFTLTISSLQPEDFATYYCQQLNSDPPVTFGPGTKVDIKRTVAAPSVFIFPPSDEQLKSGTASVVCLLNNFYPREAKVQWKVDNALQSGNSQESVTEQDSKDSTYSLSSTLTLSKADYEKHKVYACEVTHQGLSSPVTKSFNRGEC
B6: COV2-2130 (antibody, V domains shown)
VH: EVQLVESGGGLVKPGGSLRLSCAASGFTFRDVWMSWVRQAPGKGLEWVGRIKSKIDGGTTDYAAPVKGRFTISRDDSKNTLYLQMNSLKTEDTAVYYCTTAGSYYYDTVGPGLPEGKFDYWGQGTLVTVSS
VL: not shown
B7: Cilgavimab (antibody, V domains shown)
VH: B6 VH
VL: not shown

Key:
Settings in all cases: remark: other sources report otherwise
[1] = biological target: T1, SARS-CoV-2 kappa variant B.1.617.1/3 RBD domain (SARS-CoV-2); assay: RBD/ACE2 blocking ELISA
[2] = biological target: SARS-CoV-2 delta plus variant RBD (SARS-CoV-2); assay: RBD/ACE2 blocking ELISA
[3] = biological target: T2, SARS-CoV-2 delta variant B.1.617.2/3 RBD domain (SARS-CoV-2); assay: RBD/ACE2 blocking ELISA
[4] = biological target: T1, SARS-CoV-2 kappa variant B.1.617.1/3 …; assay: ELISA; parameters: unit not given beside the values
[5] = biological target: SARS-CoV-2 delta plus variant RBD (SARS-CoV-2); assay: ELISA; parameters: unit not given beside the values
[6] = biological target: T2, SARS-CoV-2 delta variant B.1.617.2/3 …; assay: ELISA; parameters: unit not given beside the values
[7] = biological target: T1, SARS-CoV-2 kappa variant B.1.617.1/3 …; assay: competition ELISA, biotinylated RBD to immobilized ACE2 ectodomain
[8] = biological target: SARS-CoV-2 delta plus variant RBD (SARS-CoV-2); assay: as above
[9] = biological target: SARS-CoV-2 Omicron subvariant BA.2 RBD (SARS-CoV-2); assay: as above
[10] = biological target: T2, SARS-CoV-2 delta variant B.1.617.2/3 …; assay: as above
[11] = biological target: T3, SARS-CoV-2 omicron variant B.1.1.529 RBD domain (SARS-CoV-2); assay: as above
[12] = biological target: T1, SARS-CoV-2 kappa variant B.1.617.1/3 …; assay: ELISA
[13] = biological target: SARS-CoV-2 delta plus variant RBD (SARS-CoV-2); assay: ELISA
[14] = biological target: T2, SARS-CoV-2 delta variant B.1.617.2/3 …; assay: ELISA
[15] = biological target: T1, SARS-CoV-2 kappa variant B.1.617.1/3 …; assay: ELISA; parameters: unit not given beside the values; remark: listed apart in the source
[16] = biological target: SARS-CoV-2 delta plus variant RBD (SARS-CoV-2); assay: ELISA; parameters: unit not given beside the values; remark: listed apart in the source
[17] = biological target: T2, SARS-CoV-2 delta variant B.1.617.2/3 …; assay: ELISA; parameters: unit not given beside the values; remark: listed apart in the source
[18] = biological target: T4, SARS-CoV-2 omicron variant B.1.1.529 Spike ectodomain (tri-S, HexaPro) (SARS-CoV-2), P0DTC2; assay: competition ELISA, biotinylated tri-S to immobilized ACE2 ectodomain
[19] = biological target: T1, SARS-CoV-2 kappa variant B.1.617.1/3 …; assay: RBD-ACE2 competition ELISA; parameters: unit not given beside the values
[20] = biological target: SARS-CoV-2 delta plus variant RBD (SARS-CoV-2); assay: RBD-ACE2 competition ELISA; parameters: unit not given beside the values
[21] = biological target: T2, SARS-CoV-2 delta variant B.1.617.2/3 …; assay: RBD-ACE2 competition ELISA; parameters: unit not given beside the values
[22] = biological target: T4, SARS-CoV-2 omicron variant B.1.1.529 …; assay: ELISA; parameters: unit not given beside the values
[23] = biological target: T3, SARS-CoV-2 omicron variant B.1.1.529 …; assay: ELISA; parameters: unit not given beside the values
[24] = biological target: T4, SARS-CoV-2 omicron variant B.1.1.529 …; assay: tri-S/ACE2 blocking ELISA [B]
[25] = biological target: T2, SARS-CoV-2 delta variant B.1.617.2/3 …; assay: RBD-ACE2 competition ELISA [letter not given]
[26] = biological target: T3, SARS-CoV-2 omicron variant B.1.1.529 …; assay: ELISA; unit from paragraph 452, none printed in the heatmap

Binder | % binding inhibition [2] [%] | % binding inhibition [3] [%] | AUC [4] | AUC [5] | AUC [6] | AUC (RBD bind.) [15] | AUC (RBD bind.) [16] | AUC (RBD bind.) [17] | AUC (RBD block.) [19] | AUC (RBD block.) [20] | AUC (RBD block.) [21] | AUC [22] | AUC [23] | AUC of blocking [24] | also measured
B1 | 80 | 96 | 4 | 3 | 3 | – | – | – | – | – | – | – | – | – | % binding inhibition [1]: 95%
B2 | 94 | 94 | 4 | 3 | 3 | 13 | 13 | 13 | 128 | 141 | 102 | 12 | 10 | 76 | IC50 [7]: 0.469 µg/mL; IC90 [7]: 1.1 µg/mL; IC50 [8]: 0.28 µg/mL; IC90 [8]: 0.967 µg/mL; IC50 [9]: 2.71 µg/mL; IC90 [9]: 29.1 µg/mL; IC50 [10]: 0.827 µg/mL; IC90 [10]: 1.31 µg/mL; IC50 [11]: 6.53 µg/mL; IC90 [11]: 37.6 µg/mL; OD405nm [12]: 3.6; OD405nm [13]: 3.5; OD405nm [14]: 3.4; % binding inhibition [1]: 92%; IC50 [18]: 0.876 µg/mL; IC90 [18]: 1.2 µg/mL
B3 | – | – | – | – | – | 12 | 6 | 13 | 111 | 9 | 71 | 1 | 1 | 0 | EC50 (read off the curve) [13]: 0.3 µg/mL
B4 | – | – | – | – | – | 13 | 12 | 13 | 150 | 33 | 91 | 2 | 1 | 10 | IC50 (read off the curve) [25]: 1 µg/mL
B5 | – | – | – | – | – | 13 | 13 | 13 | 112 | 142 | 97 | 7 | 3 | 4 | –
B6 | 88 | 77 | 4 | 3 | 3 | – | – | – | – | – | – | – | – | – | –
B7 | – | – | – | – | – | – | – | – | – | – | – | – | – | – | OD405nm [12]: 3.7; OD405nm [13]: 3.5; EC50 [26]: 0.027 µg/mL
